# Test results: patent publication US20090155256A1 (Pfizer, published 2009)
# B1: Humanized 3D6 2m (FcγR), human IgG1 L234A/G237A (EU numbering) (antibody)
# heavy: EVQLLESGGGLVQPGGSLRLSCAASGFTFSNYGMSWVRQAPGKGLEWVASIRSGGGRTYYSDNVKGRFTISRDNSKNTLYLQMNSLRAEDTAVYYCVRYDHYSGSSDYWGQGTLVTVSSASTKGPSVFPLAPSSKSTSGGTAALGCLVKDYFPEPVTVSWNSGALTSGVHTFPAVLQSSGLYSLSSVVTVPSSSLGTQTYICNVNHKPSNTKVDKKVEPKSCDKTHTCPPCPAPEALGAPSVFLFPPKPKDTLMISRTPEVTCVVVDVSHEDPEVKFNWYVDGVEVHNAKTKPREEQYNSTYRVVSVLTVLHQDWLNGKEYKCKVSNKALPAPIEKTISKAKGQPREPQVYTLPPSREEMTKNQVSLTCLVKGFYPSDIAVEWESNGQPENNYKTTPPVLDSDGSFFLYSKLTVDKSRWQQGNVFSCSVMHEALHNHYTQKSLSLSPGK
# light: DVVMTQSPLSLPVTPGEPASISCKSSQSLLDSDGKTYLNWLLQKPGQSPQRLIYLVSKLDSGVPDRFSGSGSGTDFTLKISRVEAEDVGVYYCWQGTHFPRTFGQGTKVEIKRTVAAPSVFIFPPSDEQLKSGTASVVCLLNNFYPREAKVQWKVDNALQSGNSQESVTEQDSKDSTYSLSSTLTLSKADYEKHKVYACEVTHQGLSSPVTKSFNRGEC
# notes: also called Hu 3D6 2 m; Hu 3D6 2 m IgG1
# B2: Humanized 3D6 3m (FcγR) AAB-003, human IgG1 L234A/L235A/G237A (EU numbering) (antibody)
# heavy: EVQLLESGGGLVQPGGSLRLSCAASGFTFSNYGMSWVRQAPGKGLEWVASIRSGGGRTYYSDNVKGRFTISRDNSKNTLYLQMNSLRAEDTAVYYCVRYDHYSGSSDYWGQGTLVTVSSASTKGPSVFPLAPSSKSTSGGTAALGCLVKDYFPEPVTVSWNSGALTSGVHTFPAVLQSSGLYSLSSVVTVPSSSLGTQTYICNVNHKPSNTKVDKKVEPKSCDKTHTCPPCPAPEAAGAPSVFLFPPKPKDTLMISRTPEVTCVVVDVSHEDPEVKFNWYVDGVEVHNAKTKPREEQYNSTYRVVSVLTVLHQDWLNGKEYKCKVSNKALPAPIEKTISKAKGQPREPQVYTLPPSREEMTKNQVSLTCLVKGFYPSDIAVEWESNGQPENNYKTTPPVLDSDGSFFLYSKLTVDKSRWQQGNVFSCSVMHEALHNHYTQKSLSLSPGK
# light: B1 light
# notes: also called Hu 3D6 3 m; Hu 3D6 3 m IgG1
# B3: Bapineuzumab (humanized 3D6, human IgG1, no Fc mutations) (antibody)
# heavy: not shown
# light: B1 light
# notes: also called AAB-001; Bapineuzumab Control
# B4: Humanized 3D6 1m (hinge region), human IgG4 S241P (Kabat numbering) (antibody)
# heavy: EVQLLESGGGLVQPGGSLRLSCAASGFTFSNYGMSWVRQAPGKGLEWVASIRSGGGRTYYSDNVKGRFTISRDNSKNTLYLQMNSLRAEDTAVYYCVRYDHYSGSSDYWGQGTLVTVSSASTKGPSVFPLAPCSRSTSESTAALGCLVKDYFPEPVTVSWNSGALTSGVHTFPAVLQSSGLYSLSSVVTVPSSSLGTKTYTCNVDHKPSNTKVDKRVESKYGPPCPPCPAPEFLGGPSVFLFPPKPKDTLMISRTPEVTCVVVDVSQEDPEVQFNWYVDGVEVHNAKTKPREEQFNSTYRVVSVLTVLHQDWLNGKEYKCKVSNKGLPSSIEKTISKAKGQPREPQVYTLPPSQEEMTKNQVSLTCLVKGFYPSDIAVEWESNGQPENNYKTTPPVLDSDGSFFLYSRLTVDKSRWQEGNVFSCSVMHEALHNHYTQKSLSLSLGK
# light: B1 light
# notes: also called Hu 3D6 1m IgG4; IgG4 isotype
# Biological target: T1, His-tagged domains of human FcγRI (R&D Systems, Cat # 1257-Fc) (human, UniProt P12314 16-288)
# T1 construct: Bought construct; not shown: His tag
# Assay: SPR (Biacore 3000), His-tagged receptor captured by penta-His antibody on CM5 chip, antibody injected; RU relative to control
# T1 sequence (P12314 16-288 limits assumed): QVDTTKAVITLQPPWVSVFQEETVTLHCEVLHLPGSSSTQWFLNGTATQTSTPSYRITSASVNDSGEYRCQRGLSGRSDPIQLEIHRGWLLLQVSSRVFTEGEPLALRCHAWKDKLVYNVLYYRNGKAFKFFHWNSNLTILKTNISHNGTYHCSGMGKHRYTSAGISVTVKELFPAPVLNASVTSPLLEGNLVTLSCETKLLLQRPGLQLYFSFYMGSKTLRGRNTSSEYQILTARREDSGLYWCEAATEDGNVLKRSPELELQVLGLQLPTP
row,Relative Binding Capability (%),Binder
1,0,B1
2,0,B2
3,100,B3

# Biological target: T2, His-tagged domains of human FcγRIII (R&D Systems, Cat # 1597-Fc) (human, UniProt O75015 17-200, limits assumed)
# T2 construct: not shown: His tag
# Assay: as above
# T2 sequence (O75015 17-200 limits assumed): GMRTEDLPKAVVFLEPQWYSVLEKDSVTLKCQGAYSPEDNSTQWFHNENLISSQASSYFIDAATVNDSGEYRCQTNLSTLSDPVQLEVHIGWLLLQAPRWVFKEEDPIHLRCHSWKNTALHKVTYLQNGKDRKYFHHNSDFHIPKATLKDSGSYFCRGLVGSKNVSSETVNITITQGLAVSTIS
row,Relative Binding Capability (%),Binder
1,0,B1
2,0,B4
3,0,B2
4,100,B3

# Biological target: T1, His-tagged domains of human FcγRI (R&D …)
# Assay: SPR (Biacore 3000), His-tagged receptor captured by penta-His antibody
row,binding result,Binder
1,no binding,B1
2,binds,B4
3,no binding,B2

# Biological target: T2, His-tagged domains of human FcγRIII …
# Assay: as above
row,binding result,Binder
1,no binding,B1
2,no binding,B4
3,no binding,B2

# Biological target: Purified human C1q (191391, MP Biomedicals) (human, UniProt P02745 23-245; P02746 28-253; P02747 29-245)
# Assay: ELISA: Aβ-coated plate, antibody, purified human C1q, FITC anti-C1q
# Chain of Purified human C1q (191391, MP Biomedicals) (P02745 23-245 limits assumed, chain 1 of 3): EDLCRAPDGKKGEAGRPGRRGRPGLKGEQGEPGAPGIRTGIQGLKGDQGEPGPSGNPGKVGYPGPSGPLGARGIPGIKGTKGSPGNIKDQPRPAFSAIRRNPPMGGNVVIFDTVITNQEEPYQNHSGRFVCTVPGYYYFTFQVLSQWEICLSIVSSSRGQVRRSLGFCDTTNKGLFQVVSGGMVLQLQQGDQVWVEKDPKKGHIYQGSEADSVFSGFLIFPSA
# Chain of Purified human C1q (191391, MP Biomedicals) (P02746 28-253 limits assumed, chain 2 of 3): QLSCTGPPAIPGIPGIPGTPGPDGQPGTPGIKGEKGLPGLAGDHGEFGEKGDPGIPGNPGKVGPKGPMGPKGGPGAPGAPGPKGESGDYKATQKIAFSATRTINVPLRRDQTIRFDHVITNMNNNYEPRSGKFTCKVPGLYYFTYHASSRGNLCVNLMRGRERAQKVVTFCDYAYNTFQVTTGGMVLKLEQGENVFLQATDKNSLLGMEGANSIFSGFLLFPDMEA
# Chain of Purified human C1q (191391, MP Biomedicals) (P02747 29-245 limits assumed, chain 3 of 3): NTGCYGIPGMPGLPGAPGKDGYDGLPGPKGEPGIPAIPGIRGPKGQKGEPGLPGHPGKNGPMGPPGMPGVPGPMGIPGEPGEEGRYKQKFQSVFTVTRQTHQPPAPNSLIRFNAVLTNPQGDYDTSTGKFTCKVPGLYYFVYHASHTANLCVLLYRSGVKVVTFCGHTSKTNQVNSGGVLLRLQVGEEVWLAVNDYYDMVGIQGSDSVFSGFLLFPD
row,binding result,Binder
1,no binding,B1
2,no binding,B4
3,no binding,B2
